Test system: 3-methylcrotonic acid
Format: biochemical, Yersinia frederiksenii
Design: key: “+” representing a low increase in activity; “++++” representing a high increase in activity

Molecule | Activity relative to WT
I283T-N285P-N287T-Q290E-S322T-N388M-K394R-R422D-C430A-L432F-L434W-S436N-dG462 (protein) MFLKSLREQINLLKRQGDLRIINRPVDSYLEAAAIIRRSTETKAPVPLMTNIKGYPGCSIVGGLAALSSNPEYPLSRVAMSLGLSTTASAQSIVQYLIDGLKKTPYLPVEIDSNSAPCKQNILRGEDASLAHFPIPQVHQHDGNRYVNTWGVFIVESPDGQWCNWSIQRVQYLNDRQMIALVFPSQHISDIWEEWVKIGKPMPYALVQGCEPIVPYIAGLPLLERNVNEAEYIGALYGKGIEVVKCETHDLRVPASSEVVIEGYFAITREGVEGPFGEFAGYTPPETSLEPILSITAISWQDDPIWPVVAEGKPVDEYHTCTGIGDAAAIQNVLLTANLPVSFVWVPLYSACHLMIVSINRHWRQTHPDLTSEQLTKKVGDVIHQTRMSIKLPRIVVLDDDVDPADTESLLWALATRIHPEDKRYFYESAIFPWLNCYSEEERHNRKGKRVIIDALLPENHGAISSFDYAYPDDIKQRVLMHWETDFSHD | ++++
E224Q-I283T-N285P-N287T-Q290E-S322T-N388M-K394R-C430A-L432F-L434W-S436N-dG462 (protein) MFLKSLREQINLLKRQGDLRIINRPVDSYLEAAAIIRRSTETKAPVPLMTNIKGYPGCSIVGGLAALSSNPEYPLSRVAMSLGLSTTASAQSIVQYLIDGLKKTPYLPVEIDSNSAPCKQNILRGEDASLAHFPIPQVHQHDGNRYVNTWGVFIVESPDGQWCNWSIQRVQYLNDRQMIALVFPSQHISDIWEEWVKIGKPMPYALVQGCEPIVPYIAGLPLLQRNVNEAEYIGALYGKGIEVVKCETHDLRVPASSEVVIEGYFAITREGVEGPFGEFAGYTPPETSLEPILSITAISWQDDPIWPVVAEGKPVDEYHTCTGIGDAAAIQNVLLTANLPVSFVWVPLYSACHLMIVSINRHWRQTHPDLTSEQLTKKVGDVIHQTRMSIKLPRIVVLDDDVDPADTESLLWALATRIHPERKRYFYESAIFPWLNCYSEEERHNRKGKRVIIDALLPENHGAISSFDYAYPDDIKQRVLMHWETDFSHD | ++++
V227L-I283T-N285P-N287T-Q290E-S322T-N388M-K394R-C430A-L432F-L434W-S436N-dG462 (protein) MFLKSLREQINLLKRQGDLRIINRPVDSYLEAAAIIRRSTETKAPVPLMTNIKGYPGCSIVGGLAALSSNPEYPLSRVAMSLGLSTTASAQSIVQYLIDGLKKTPYLPVEIDSNSAPCKQNILRGEDASLAHFPIPQVHQHDGNRYVNTWGVFIVESPDGQWCNWSIQRVQYLNDRQMIALVFPSQHISDIWEEWVKIGKPMPYALVQGCEPIVPYIAGLPLLERNLNEAEYIGALYGKGIEVVKCETHDLRVPASSEVVIEGYFAITREGVEGPFGEFAGYTPPETSLEPILSITAISWQDDPIWPVVAEGKPVDEYHTCTGIGDAAAIQNVLLTANLPVSFVWVPLYSACHLMIVSINRHWRQTHPDLTSEQLTKKVGDVIHQTRMSIKLPRIVVLDDDVDPADTESLLWALATRIHPERKRYFYESAIFPWLNCYSEEERHNRKGKRVIIDALLPENHGAISSFDYAYPDDIKQRVLMHWETDFSHD | ++++
L222V-I283T-N285P-N287T-Q290E-S322T-N388M-K394R-C430A-L432F-L434W-S436N-dG462 (protein) MFLKSLREQINLLKRQGDLRIINRPVDSYLEAAAIIRRSTETKAPVPLMTNIKGYPGCSIVGGLAALSSNPEYPLSRVAMSLGLSTTASAQSIVQYLIDGLKKTPYLPVEIDSNSAPCKQNILRGEDASLAHFPIPQVHQHDGNRYVNTWGVFIVESPDGQWCNWSIQRVQYLNDRQMIALVFPSQHISDIWEEWVKIGKPMPYALVQGCEPIVPYIAGLPVLERNVNEAEYIGALYGKGIEVVKCETHDLRVPASSEVVIEGYFAITREGVEGPFGEFAGYTPPETSLEPILSITAISWQDDPIWPVVAEGKPVDEYHTCTGIGDAAAIQNVLLTANLPVSFVWVPLYSACHLMIVSINRHWRQTHPDLTSEQLTKKVGDVIHQTRMSIKLPRIVVLDDDVDPADTESLLWALATRIHPERKRYFYESAIFPWLNCYSEEERHNRKGKRVIIDALLPENHGAISSFDYAYPDDIKQRVLMHWETDFSHD | ++++
I35V-Q140L-I283T-N285P-N287T-Q290E-S322T-N388M-K394R-C430A-L432F-L434W-S436N-dG462 (protein) MFLKSLREQINLLKRQGDLRIINRPVDSYLEAAAVIRRSTETKAPVPLMTNIKGYPGCSIVGGLAALSSNPEYPLSRVAMSLGLSTTASAQSIVQYLIDGLKKTPYLPVEIDSNSAPCKQNILRGEDASLAHFPIPQVHLHDGNRYVNTWGVFIVESPDGQWCNWSIQRVQYLNDRQMIALVFPSQHISDIWEEWVKIGKPMPYALVQGCEPIVPYIAGLPLLERNVNEAEYIGALYGKGIEVVKCETHDLRVPASSEVVIEGYFAITREGVEGPFGEFAGYTPPETSLEPILSITAISWQDDPIWPVVAEGKPVDEYHTCTGIGDAAAIQNVLLTANLPVSFVWVPLYSACHLMIVSINRHWRQTHPDLTSEQLTKKVGDVIHQTRMSIKLPRIVVLDDDVDPADTESLLWALATRIHPERKRYFYESAIFPWLNCYSEEERHNRKGKRVIIDALLPENHGAISSFDYAYPDDIKQRVLMHWETDFSHD | ++++
I283T-N285P-E286A-N287T-Q290E-S322T-N388M-K394R-C430A-L432F-L434W-S436N-dG462 (protein) MFLKSLREQINLLKRQGDLRIINRPVDSYLEAAAIIRRSTETKAPVPLMTNIKGYPGCSIVGGLAALSSNPEYPLSRVAMSLGLSTTASAQSIVQYLIDGLKKTPYLPVEIDSNSAPCKQNILRGEDASLAHFPIPQVHQHDGNRYVNTWGVFIVESPDGQWCNWSIQRVQYLNDRQMIALVFPSQHISDIWEEWVKIGKPMPYALVQGCEPIVPYIAGLPLLERNVNEAEYIGALYGKGIEVVKCETHDLRVPASSEVVIEGYFAITREGVEGPFGEFAGYTPPATSLEPILSITAISWQDDPIWPVVAEGKPVDEYHTCTGIGDAAAIQNVLLTANLPVSFVWVPLYSACHLMIVSINRHWRQTHPDLTSEQLTKKVGDVIHQTRMSIKLPRIVVLDDDVDPADTESLLWALATRIHPERKRYFYESAIFPWLNCYSEEERHNRKGKRVIIDALLPENHGAISSFDYAYPDDIKQRVLMHWETDFSHD | ++++
I283T-N285P-N287T-Q290E-S322T-N388M-K394R-C430A-L432F-L434W-S436N-dG462-A463V (protein) MFLKSLREQINLLKRQGDLRIINRPVDSYLEAAAIIRRSTETKAPVPLMTNIKGYPGCSIVGGLAALSSNPEYPLSRVAMSLGLSTTASAQSIVQYLIDGLKKTPYLPVEIDSNSAPCKQNILRGEDASLAHFPIPQVHQHDGNRYVNTWGVFIVESPDGQWCNWSIQRVQYLNDRQMIALVFPSQHISDIWEEWVKIGKPMPYALVQGCEPIVPYIAGLPLLERNVNEAEYIGALYGKGIEVVKCETHDLRVPASSEVVIEGYFAITREGVEGPFGEFAGYTPPETSLEPILSITAISWQDDPIWPVVAEGKPVDEYHTCTGIGDAAAIQNVLLTANLPVSFVWVPLYSACHLMIVSINRHWRQTHPDLTSEQLTKKVGDVIHQTRMSIKLPRIVVLDDDVDPADTESLLWALATRIHPERKRYFYESAIFPWLNCYSEEERHNRKGKRVIIDALLPENHGVISSFDYAYPDDIKQRVLMHWETDFSHD | ++++
I283T-N285P-N287T-Q290E-S322T-N388M-K394R-C430A-L432F-L434W-S436N-dG462-Y471F (protein) MFLKSLREQINLLKRQGDLRIINRPVDSYLEAAAIIRRSTETKAPVPLMTNIKGYPGCSIVGGLAALSSNPEYPLSRVAMSLGLSTTASAQSIVQYLIDGLKKTPYLPVEIDSNSAPCKQNILRGEDASLAHFPIPQVHQHDGNRYVNTWGVFIVESPDGQWCNWSIQRVQYLNDRQMIALVFPSQHISDIWEEWVKIGKPMPYALVQGCEPIVPYIAGLPLLERNVNEAEYIGALYGKGIEVVKCETHDLRVPASSEVVIEGYFAITREGVEGPFGEFAGYTPPETSLEPILSITAISWQDDPIWPVVAEGKPVDEYHTCTGIGDAAAIQNVLLTANLPVSFVWVPLYSACHLMIVSINRHWRQTHPDLTSEQLTKKVGDVIHQTRMSIKLPRIVVLDDDVDPADTESLLWALATRIHPERKRYFYESAIFPWLNCYSEEERHNRKGKRVIIDALLPENHGAISSFDYAFPDDIKQRVLMHWETDFSHD | ++++
N287T-N388M-K394R-C430N-L432F-L434W-S436N (protein) MFLKSLREQINLLKRQGDLRIINRPVDSYLEAAAIIRRSTETKAPVPLMTNIKGYPGCSIVGGLAALSSNPEYPLSRVAMSLGLSTTASAQSIVQYLIDGLKKTPYLPVEIDSNSAPCKQNILRGEDASLAHFPIPQVHQHDGNRYVNTWGVFIVESPDGQWCNWSIQRVQYLNDRQMIALVFPSQHISDIWEEWVKIGKPMPYALVQGCEPIVPYIAGLPLLERNVNEAEYIGALYGKGIEVVKCETHDLRVPASSEVVIEGYFAITREGVEGPFGEFAGYIPNETSLQPILSITAISWQDDPIWPVVAEGKPVDEYHTCSGIGDAAAIQNVLLTANLPVSFVWVPLYSACHLMIVSINRHWRQTHPDLTSEQLTKKVGDVIHQTRMSIKLPRIVVLDDDVDPADTESLLWALATRIHPERKRYFYESNIFPWLNCYSEEERHNRKGKRVIIDALLPENHGAISSFDYAYPDDIKQRVLMHWETDFSHD | +
E224P-I283T-N285P-N287T-Q290E-S322T-N388M-K394R-C430A-L432F-L434W-S436N-dG462 (protein) MFLKSLREQINLLKRQGDLRIINRPVDSYLEAAAIIRRSTETKAPVPLMTNIKGYPGCSIVGGLAALSSNPEYPLSRVAMSLGLSTTASAQSIVQYLIDGLKKTPYLPVEIDSNSAPCKQNILRGEDASLAHFPIPQVHQHDGNRYVNTWGVFIVESPDGQWCNWSIQRVQYLNDRQMIALVFPSQHISDIWEEWVKIGKPMPYALVQGCEPIVPYIAGLPLLPRNVNEAEYIGALYGKGIEVVKCETHDLRVPASSEVVIEGYFAITREGVEGPFGEFAGYTPPETSLEPILSITAISWQDDPIWPVVAEGKPVDEYHTCTGIGDAAAIQNVLLTANLPVSFVWVPLYSACHLMIVSINRHWRQTHPDLTSEQLTKKVGDVIHQTRMSIKLPRIVVLDDDVDPADTESLLWALATRIHPERKRYFYESAIFPWLNCYSEEERHNRKGKRVIIDALLPENHGAISSFDYAYPDDIKQRVLMHWETDFSHD | ++++

Source: patent US20250327097A1, “ORGANISMS PRODUCING LESS CROTONIC ACID” (Global Bioenergies, priority 2021, published 2025)
